Experimental data reported in paper PMC3060798, “Molecular Determinants of S100B Oligomer Formation” (PLoS ONE, 2011).
Values joined by “and” are separate entries in the source; they are usually repeats but may differ in a detail not shown here. Identical values can stand only once.

T1: p53 target peptide (Met followed by residues 367-388 of p53, Phe 385 changed to Trp) (Phe 385 changed to Trp (stands in the printed letters))
T1 construct: added Met before the p53 residues; p53, C-terminal regulatory domain, residues 367-388 with Phe 385 changed to Trp; the peptide was cleaved off; also called p53 peptide; target peptide from p53; source: E. coli ER2566, purified (DEAE cellulose, chitin column, cleaved off from the intein with 50 mM DTT, G25 gel filtration)
T1 peptide: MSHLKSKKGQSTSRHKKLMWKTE

B1: S100B dimer (highly pure, trigger-free) (natural protein, rat, UniProt P04631 1-92, looked up)
chain: MSELEKAMVALIDVFHQYSGREGDKHKLKKSELKELINNELSHFLEEIKEQEVVDKVMETLDEDGDGECDFQEFMAFVSMVTTACHEFFEHE
notes: S100B, rat; plasmid with the rat S100B gene (gift from D. Weber); monomer 10.7 kDa, dimer 21.5 kDa as printed; Homodimer; No tag is mentioned; In rows of m1 with m1 the step meant (monomers to dimer, or dimers to tetramer and higher) is told in the assay's format; also called trigger-free S100B; trigger-free S100B dimer
B2: S100B hexamer (natural protein, rat, UniProt P04631 1-92, looked up)
chain: B1 chain
notes: S100B, rat; same chain as m1, isolated as hexamer (64.5 kDa expected); Same polypeptide as m1 in another oligomeric state; free of imidazol after gel filtration; also called hexamer fraction; source: E. coli BL21 De3 PLysS star; trigger-free dimer triggered with 90 mM imidazol, hexamer fraction collected from Superdex 200 gel filtration
B3: S100B tetramer (natural protein, rat, UniProt P04631 1-92, looked up)
chain: B1 chain
notes: S100B, rat; same chain as m1, isolated as tetramer (43.0 kDa expected); Same polypeptide as m1 in another oligomeric state; free of imidazol after gel filtration; also called tetramer fraction; source: E. coli BL21 De3 PLysS star; trigger-free dimer triggered with 90 mM imidazol, tetramer fraction collected from Superdex 200 gel filtration

Tests used:
[1] = molecular target: the molecule itself; test: SEC; analytical gel filtration on Superdex 200; step: dimers to tetramer, hexamer and higher oligomers; 20 mg/ml trigger-free S100B dimer with imidazol (20-900 mM, optimum 90 mM), 1 mM EDTA, 1 mM DTT, 0.25 M NaCl, pH 7.0, lyophilized, dissolved, incubated 24 h at 4 °C
[2] = molecular target: the molecule itself; test: SEC; hexamer, tetramer and dimer fractions collected after imidazol triggering, reinjected on Superdex 200 and analysed repeatedly during storage for up to 6 months in solution at 4 °C
[3] = molecular target: T1, p53 target peptide (Met followed by …); test: other fluorescence titration; p53 peptide (0.07-1.3 µM) titrated with S100B dimer, tetramer or hexamer stock; 10 mM BisTris, 5 mM CaCl2, pH 7, 25 °C; Trp emission at 330 nm, excitation 295 nm; 1:1 binding model fitted against total S100B monomer concentration; conditions: both partners purified
[4] = molecular target: the molecule itself; test: dynamic light scattering; ZetaSizer Nano-S; fractions collected directly from the Superdex200 column in 25 mM sodium carbonate with 25 mM HCl, pH 7.3

Binder | stoichiometry N [1] | stoichiometry N [2] | stoichiometry N [3] | stoichiometry N [4]
B1 | 4 and 6 | 2 | 2 peptides per dimer | 
B2 |  |  | 6 peptides per hexamer | 6
B3 |  |  | 4 peptides per tetramer | 4
